In assay [1] the target is T1, mouse Siglec15-his protein (mouse).
T1 construct: In house made
T1 chain: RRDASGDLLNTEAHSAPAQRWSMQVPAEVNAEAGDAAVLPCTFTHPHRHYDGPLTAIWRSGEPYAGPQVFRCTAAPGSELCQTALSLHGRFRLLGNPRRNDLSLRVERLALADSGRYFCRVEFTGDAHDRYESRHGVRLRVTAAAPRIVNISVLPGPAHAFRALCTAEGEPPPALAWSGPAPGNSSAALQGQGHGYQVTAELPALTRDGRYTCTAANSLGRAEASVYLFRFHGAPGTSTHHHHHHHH
The assay can be described thus: indirect ELISA on coated mouse Siglec15-his. Here is the method: (§1) The anti-Siglec15 antibodies' cross-reactions to cynomolgus or mouse Siglec15 proteins were measured. Briefly, 96-well micro plates were coated with 100 μl of 2 μg/ml cynomolgus Siglec15-his protein (in house made with SEQ ID NO: 21), or 2 μg/ml mouse Siglec15-his protein (in house made with SEQ ID NO: 22) in carbonate/bicarbonate buffer (pH 9.6) for 2 hours at 37° C. ELISA plates were washed once with wash buffer (PBS+0.05% v/v Tween-20, PBST) and then blocked with 200 μl/well blocking buffer (5% w/v non-fatty milk in PBST) overnight at 4° C. Plates were washed 4 times and incubated with 100 μl serially diluted anti-Siglec15 antibodies of the disclosure or controls (starting at 66.7 nM, 5-fold serial dilution in PBST with 2.5% w/v non-fatty milk) for 40 minutes at 37° C. ELISA plates were washed 4 times again and incubated with Peroxidase AffiniPure Goat Anti-Human IgG, F(ab)₂ fragment specific (1:5000 dilution in PBST buffer, Jackson Immunoresearch, Cat #109-035-097, 100 μl/well) for 40 minutes at 37° C. After a final wash, plates were incubated with 100 μl/well TMB (Innoreagents, Cat #TMB-S-002). The reaction was stopped 4 minutes later at room temperature with 50 μl 1M H₂SO₄, and the absorbance of each well was read on a microplate reader using dual wavelength mode with 450 nm for TMB and 630 nm as the reference wavelength, then the OD (450-630) values were plotted against antibody concentration. Data was analyzed using Graphpad Prism software and EC₅₀ values were reported.
For orientation: ELISA stands for enzyme-linked immunosorbent assay.

Assay [2] addresses T2, recombinant human Siglec15-his protein (human, UniProt Q6ZMC9 20-263).
T2 construct: In house made; Biotin-labeled in the capture ELISA
T2 sequence: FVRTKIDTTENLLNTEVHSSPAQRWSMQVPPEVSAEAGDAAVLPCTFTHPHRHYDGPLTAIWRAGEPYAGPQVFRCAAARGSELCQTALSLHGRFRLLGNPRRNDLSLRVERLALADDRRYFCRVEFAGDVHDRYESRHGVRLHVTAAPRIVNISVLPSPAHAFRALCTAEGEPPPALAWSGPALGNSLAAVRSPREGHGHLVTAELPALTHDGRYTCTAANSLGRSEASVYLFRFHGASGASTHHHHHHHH
The assay can be described thus: SPR Biacore T200, antibody captured by anti-human IgG, antigen as analyte, 1:1 fit. Here is the method: (§2) Briefly, goat anti-human IgG (GE healthcare, Cat #BR100839, Human Antibody Capture Kit) was covalently linked to a CM5 chip (carboxy methyl dextran coated chip, GE healthcare, Cat #BR-1005-30) via primary amines, using a standard amine coupling kit provided by Biacore (GE healthcare, Pittsburgh, Pa., USA). Un-reacted moieties on the biosensor surface were blocked with ethanolamine. Then, purified anti-Siglec15 antibodies of the disclosure at the concentration of 13.3 nM and an anti-Siglec15 benchmark (ch5G12, also referred to as BM, see U.S. Patent Publication No. 20190202912A1, amino acid sequences of the heavy chain and light chain set forth in SEQ ID NOs: 24 and 25, respectively) at 13.3 nM, were respectively flowed onto the chip at a flow rate of 10 μL/min. Then, serially diluted recombinant human Siglec15-his protein (in house made, amino acid sequence set forth in SEQ ID NO: 20) or cynomolgus monkey Siglec15-his protein (in house made, amino acid sequence set forth in SEQ ID NO: 21), 2-fold serial dilution in HBS-EP⁺ buffer starting at 80 nM, were respectively flown onto the chip at a flow rate of 30 μL/min. The antigen-antibody association kinetics was followed for 2 minutes and the dissociation kinetics was followed for 10 minutes. The association and dissociation curves were fit to a 1:1 Langmuir binding model using BIAcore evaluation software.
(In general: SPR reads the build-up and loss of mass on a sensor chip optically.)

Assay [3] has as its target T3, cynomolgus monkey Siglec15-his protein (cynomolgus monkey).
T3 construct: In house made; also called Cynomolgus Siglec15-his; cynomolgus Siglec15
T3 chain: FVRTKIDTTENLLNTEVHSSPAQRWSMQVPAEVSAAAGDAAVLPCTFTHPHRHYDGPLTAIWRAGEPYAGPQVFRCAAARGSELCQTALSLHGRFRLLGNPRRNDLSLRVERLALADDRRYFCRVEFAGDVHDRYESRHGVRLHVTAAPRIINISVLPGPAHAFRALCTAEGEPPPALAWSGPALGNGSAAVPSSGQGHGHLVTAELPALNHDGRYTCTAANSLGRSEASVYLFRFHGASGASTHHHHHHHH
The assay is described as above. Here is the method:
as §2

Assay [4] deals with T4, human Siglec15-Fc protein (human).
T4 construct: In house made; also called recombinant human Siglec15 protein with human IgG1 Fc at the C-terminus
T4 sequence (chain, as listed by the source limits assumed): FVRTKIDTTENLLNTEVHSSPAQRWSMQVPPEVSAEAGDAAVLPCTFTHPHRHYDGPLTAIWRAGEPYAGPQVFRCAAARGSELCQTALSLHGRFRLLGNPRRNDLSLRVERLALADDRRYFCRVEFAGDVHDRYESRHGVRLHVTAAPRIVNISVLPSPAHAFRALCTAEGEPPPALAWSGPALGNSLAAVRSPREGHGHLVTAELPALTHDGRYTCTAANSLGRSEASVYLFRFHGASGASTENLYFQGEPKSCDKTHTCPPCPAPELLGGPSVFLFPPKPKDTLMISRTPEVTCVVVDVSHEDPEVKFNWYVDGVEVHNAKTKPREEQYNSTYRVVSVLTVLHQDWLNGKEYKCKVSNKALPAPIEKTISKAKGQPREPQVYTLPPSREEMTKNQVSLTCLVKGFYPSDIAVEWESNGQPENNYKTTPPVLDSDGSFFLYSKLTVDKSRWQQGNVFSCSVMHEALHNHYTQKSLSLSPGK
The assay can be described thus: competitive ELISA: coated human Siglec15-Fc, blocked ligand biotin-labeled human LRRC4C-Fc. Here is the method:
Serially diluted anti-Siglec15 antibodies or the controls (starting at 66.67 nM with a 5-fold serial dilution) in PBST with 2.5% w/v non-fatty milk were added to the Siglec15-Fc bound plates, 100 μl per well, and incubated with the human Siglec15-Fc protein at 37° C. for 40 minutes. Plates were washed 4 times again using wash buffer, then added and incubated for 40 minutes at 37° C. with 100 μl/well 290 ng/ml biotin-labeled human LRRC4C-Fc protein (prepared in-house with SEQ ID NO: 23). Plates were washed again using wash buffer. Thereafter, the plates were added with 100 μl/well streptavidin conjugated HRP (1:5000 dilution in PBST buffer, Jackson Immunoresearch, Cat #016-030-084) and incubated for 40 minutes at 37° C. Plates were washed again using wash buffer. Finally, TMB was added and the reaction was stopped using 1M H₂SO₄, and the absorbance of each well was read on a microplate reader using dual wavelength mode with 450 nm for TMB and 630 nm as the reference wavelength, then the OD (450-630) values were plotted against antibody concentration. Data was analyzed using Graphpad Prism software and IC₅₀ values were reported.
The mouse anti-Siglec15 antibodies of the disclosure were also tested in ligand blocking ELISA and benchmark blocking ELISA following the protocols described above.

For assay [5], the target named is T3, cynomolgus monkey Siglec15-his protein. The assay can be described thus: indirect ELISA on coated cynomolgus Siglec15-his. Here is the method: as §1

In general, EC50 refers to the concentration giving half of the maximal effect. The term Kd denotes the concentration at which binding is half-saturated. The term koff denotes the first-order rate constant of dissociation. The kon is the second-order rate constant of association. In general, IC50 refers to the concentration that inhibits the measured activity by half.

B1: anti-Siglec15 benchmark (ch5G12) (antibody, human IgG1, kappa, V domains shown)
VH: QVQLQQPGAELVKPGASVKMSCKASGYTFTSYWITWVIQRPGQGLEWIGDIYCGSDTMHYNEKFKNKATLTVDTSSSTAYMQLSSLTSEDSAVYYCARWWDYGSSYDYFDYWGQGTTLTVSS
VL: DIKMTQSPSSMYASLGERVTITCKASQDINSYLSWFQQKPGKSPKTLIYRANRLVDGVPSRFSGSGSGQDYSLTISSLEYEDMGIYYCLQYDEFPYTFGGGTKLEIKR
notes: ch5G12 (US 20190202912A1); also called BM; Siglec15-ch5G9
In the case of B1, the EC50 in assay [1] stood at 0.276 nM. Further, in assay [2], the dissociation constant Kd came out at 0.422 nM, the koff was 0.000955 s⁻¹ and the kon came out at 2.27e+06 M⁻¹ s⁻¹. For the same molecule, in assay [3], binding was characterised by a dissociation constant (Kd) of 0.688 nM, the koff was determined as 0.000781 s⁻¹ and the kon was 1.13e+06 M⁻¹ s⁻¹. In addition, the IC50 in assay [4] turned out to be 1.57 nM. Moreover, the EC50 in assay [5] stood at 0.652 nM.

B2: B2D7H7A3C1 (antibody, V domains shown)
VH: QVQLQQSGAELVRPGTSVQMSCKAAGYTFTNYWIGWVKQRPGHGLEWVGDIHPGINYTNNNEKFRGKATLTADTSSNTAYMQLRGLTSDDSAIYYCARVDYDYDGSYIMDYWGQGTSVTVSS
VL: QIVLSQSPALLSASPGEKVTMTCRASSSVSYMYWYQQKPGSSPKPWIYATSNLTSGVPARFSGSGSGTSYSLTISRVEAEDAATYFCQQWNSKPWTFGGGSKLEIR
notes: Mouse monoclonal antibody from hybridoma; also called mouse B2D7H7A3C1
Regarding B2, in assay [4], the IC50 came out at 0.868 nM.

B3: B2G12H3E8 (antibody, V domains shown)
VH: QVQLKQSGAELVRPGTSVQMSCKAVGYTFTNYWIGWVKQRPGHGLEWVGDIHPGINYTNNNEKFRGKATLTADTSSSTAYMQLRGLTSDDSAIYYCARVDYDYDGSYIMDYWGQGTSVTVSS
VL: QIVLSQSPALLSASPGEKVTMTCRASSSVSYMYWYQQKPGSSPKPWIYATSNLTSGVPARFSGSGSGTSYSLTISRVEAEDAATYFCQQWNSKPWTFGGGSKLEIR
notes: Mouse monoclonal antibody from hybridoma; also called mouse B2G12H3E8
Molecule B3 showed an IC50 in assay [4] of 0.954 nM.

B4: B2H2H1H7 (antibody, V domains shown)
VH: QVQLQQSGAELVRPGTSVQMSCKAAGYTFTNYWIGWVKQRPGHGLEWVGDIHPGINYTNNNEKFRGKATLTADTSSSTAYMQLRGLTSDDSAIYYCARVDYDYDGSYIMDYWGQGTSVTVSS
VL: QIILSQSPALLSASPGEKVTMTCRASSSVSYMYWYQQKPGSSPKPWIYATSNLTSGVPARFSGSGSGTSYSLTISRVEAEDAATYFCQQWNSKPWTFGGGSRLEIR
notes: Mouse monoclonal antibody from hybridoma; also called mouse B2H2H1H7; B2H2H1A7
Turning to B4, the IC50 in assay [4] stood at 1.04 nM.

B5: A2A5C7E8 (antibody, V domains shown)
VH: EVQLVQSGAEVKKPGESLRISCKGSGYSFTTYWISWVRQMPGKGLEWMGLIDPSDSYTNYSPSFQGHVTISTDKSISTAYLQWSSLKASDTAMYYCARGGYYGSEEDYWGQGTLVTVSS
VL: EIVLTQSPGTLSLSPGERATLSCRASQSVSSSRLAWFQQKSGQAPRLLIFDASSRATGIPDRFSGSGSGTDFTLTISRLEPEDFAVYYCQQYGSSPRTFGQGTKVEFK
notes: Fully human antibody from transgenic mouse hybridoma; also called A2A5C7E8-1
As for B5, in assay [1], the EC50 was determined as 0.139 nM. In assay [2], the Kd was 0.0383 nM, the dissociation rate constant (koff) stood at 7.45e-05 s⁻¹ and the kon turned out to be 1.94e+06 M⁻¹ s⁻¹. In assay [3], this molecule gave a Kd of 0.0704 nM, a koff of 7.96e-05 s⁻¹ and a kon of 1.13e+06 M⁻¹ s⁻¹. Besides, in assay [5], the EC50 was 0.521 nM.

B6: A2A5C7E8-2 (antibody, human IgG1, kappa, V domains shown)
VH: EVQLVQSGAEVKKPGESLRISCKGSGYSFTTYWISWVRQMPGKGLEWMGLIDPSESYTNYSPSFQGHVTISTDKSISTAYLQWSSLKASDTAMYYCARGGYYGSEEDYWGQGTLVTVSS
VL: EIVLTQSPGTLSLSPGERATLSCRASQSVSSSRLAWFQQKSGQAPRLLIFDASSRATGIPDRFSGSGSGTDFTLTISRLEPEDFAVYYCQQYGSSPRTFGQGTKVEFKR
notes: Variant of A2A5C7E8 modified in VH CDR2 (X1 = E)
The molecule B6 gave an EC50 in assay [1] of 0.151 nM. Also, in assay [2], the Kd stood at 0.164 nM, the koff came to 0.000273 s⁻¹ and the kon came to 1.66e+06 M⁻¹ s⁻¹. In assay [3], this molecule registered a Kd of 0.147 nM, a koff of 0.000167 s⁻¹ and a kon of 1.14e+06 M⁻¹ s⁻¹.

B7: A2A5C7E8-3 (antibody, human IgG1, kappa, V domains shown)
VH: EVQLVQSGAEVKKPGESLRISCKGSGYSFTTYWISWVRQMPGKGLEWMGLIDPSDSYTNYSPSFKGHVTISTDKSISTAYLQWSSLKASDTAMYYCARGGYYGSEEDYWGQGTLVTVSS
VL: EIVLTQSPGTLSLSPGERATLSCRASQSVSSSRLAWFQQKSGQAPRLLIFDASSRATGIPDRFSGSGSGTDFTLTISRLEPEDFAVYYCQQYGSSPRTFGQGTKVEFKR
notes: Variant of A2A5C7E8 modified in VH CDR2 (X2 = K)
In assay [1], B7 came in with an EC50 of 0.159 nM. Moreover, in assay [2], the Kd is 0.0396 nM, the koff turned out to be 7.46e-05 s⁻¹ and the kon was 1.88e+06 M⁻¹ s⁻¹. In assay [3], this molecule gave a Kd of 0.0751 nM, a koff of 5.32e-05 s⁻¹ and a kon of 708000 M⁻¹ s⁻¹.

B8: A1E10G7H9 (antibody, V domains shown)
VH: QVQLQESGPGLVKPSGTLSLTCAVSGGSISSSNWWHWVRQPPGKGLEWIGEIYHSGNTNYKPSLKSRVTISVDKSKNQFSLKLSSVTAADTAVYYCARDEGNGWSNAFDIWGQGTMVTVSS
VL: ENVLTQSPGTLSLSPGERVTLSCRASQSVSSSYLAWYQQKPGQAPRFLIYGASGGATGIPDRFSGSGSGTDFTLTISRLEPEDFAVYYCQQYGSSPITFGQGTRLEIK
notes: Fully human antibody from transgenic mouse hybridoma
In assay [5], B8 had an EC50 of 0.509 nM.

The record behind these values is patent US20230106715A1 (BIOSION, published 2023).
